# Reference: patent US20240384003A1 (PRECISION BIOLOGICS, published 2024)
# B1: NEO-201 (antibody, human IgG1, kappa, V domains shown)
# VH: QVQLVQSGAEVKKPGASVKVSCKASGYTFTDYAMHWVRQAPGQRLEWMGLISTYSGDTKYNQNFQGRVTMTVDKSASTAYMELSSLRSEDTAVYYCARGDYSGSRYWFAYWGQGTLVTVSS
# VL: DIQMTQSPSSLSASVGDRVTITCQASENIYGALNWYQRKPGKSPKLLIYGASNLATGMPSRFSGSGSGTDYTFTISSLQPEDIATYYCQQVLSSPYTFGGGTKLEIKR
# notes: also called H16C3-Abb*
# Biological target: T1, CEACAM5-D2-312* (human, UniProt P06731 35-311)
# T1 sequence (looked up): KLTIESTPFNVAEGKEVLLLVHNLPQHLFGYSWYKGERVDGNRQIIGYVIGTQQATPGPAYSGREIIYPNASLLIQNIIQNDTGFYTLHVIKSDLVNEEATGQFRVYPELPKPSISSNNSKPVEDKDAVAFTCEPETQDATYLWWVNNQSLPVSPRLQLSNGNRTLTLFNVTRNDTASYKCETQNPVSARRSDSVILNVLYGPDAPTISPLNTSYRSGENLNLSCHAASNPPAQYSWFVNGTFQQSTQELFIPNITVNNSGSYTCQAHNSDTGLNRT
# Assay: ELISA on truncated CEACAM5 from transfected-cell supernatant
# Experimental: Different truncated C-terminus CEACAM6 gene constructs were designed as illustrated in FIG. 13. […] Different truncated C-terminus CEACAM5 gene constructs were designed as illustrated in FIG. 15. The procedure for the expression of the truncated C-terminus constructs was the same as to the method described above. All deletions were transfected into HEK293T cells, harvest the cell pellet and/or supernatant after 48-72 hours. Supernatant binding activity was quantitated by ELISA.
binder,measurement,value
B1,binding result,no binding
